The values below come from paper PMC8263008, “Inhibition of Fibrinolysis by Streptococcal Phage LysinSM1” (mBio, 2021).

Bounds are passed on as bounds.

Test [1] has as its target MalE-fibrinogen Aα534-610 (variant 8) (human). Nature of the test: SPR; lysinSM1, lysin102-198 or plasminogen on recombinant variant 8 (Aα534-610); otherwise as for fibrinogen. In general terms: In SPR one partner is held on a chip, and binding of the other changes the refractive index at the surface.
Test [2] deals with purified human fibrinogen (human) (UniProt P02671). Nature of the test: ELISA; competition: immobilised fibrinogen (0.1 μM), 0 to 100 μM lysinSM1, lysin102-198 or lysin1-102, and 100 nM plasminogen; bound plasminogen detected with anti-plasminogen antibody. (In general: In an ELISA, binding on a coated surface is turned into a signal by an enzyme label.)
purified human fibrinogen (human), sequence (P02671 36-866, chain 1 of 3): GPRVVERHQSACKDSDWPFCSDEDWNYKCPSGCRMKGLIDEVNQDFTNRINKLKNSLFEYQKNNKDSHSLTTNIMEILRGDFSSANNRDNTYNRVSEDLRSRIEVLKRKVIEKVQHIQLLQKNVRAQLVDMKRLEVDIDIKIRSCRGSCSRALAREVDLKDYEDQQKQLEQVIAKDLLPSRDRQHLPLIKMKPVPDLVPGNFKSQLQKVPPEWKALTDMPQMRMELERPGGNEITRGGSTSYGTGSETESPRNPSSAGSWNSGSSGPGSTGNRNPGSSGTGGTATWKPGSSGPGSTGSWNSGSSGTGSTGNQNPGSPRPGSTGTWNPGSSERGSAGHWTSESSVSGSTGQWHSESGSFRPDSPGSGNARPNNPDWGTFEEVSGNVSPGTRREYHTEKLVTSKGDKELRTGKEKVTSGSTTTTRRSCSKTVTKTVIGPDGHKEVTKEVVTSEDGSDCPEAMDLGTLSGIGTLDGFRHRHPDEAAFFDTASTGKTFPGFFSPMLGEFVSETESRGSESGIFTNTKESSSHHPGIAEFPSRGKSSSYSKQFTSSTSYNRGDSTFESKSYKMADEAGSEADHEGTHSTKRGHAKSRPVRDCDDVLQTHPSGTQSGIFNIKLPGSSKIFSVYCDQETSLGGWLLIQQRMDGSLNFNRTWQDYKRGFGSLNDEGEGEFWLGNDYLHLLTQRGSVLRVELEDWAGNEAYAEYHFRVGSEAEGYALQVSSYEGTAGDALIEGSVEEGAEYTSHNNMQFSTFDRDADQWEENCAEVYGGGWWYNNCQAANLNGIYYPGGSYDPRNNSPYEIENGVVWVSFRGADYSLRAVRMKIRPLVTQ
purified human fibrinogen (human), sequence (P02675 45-491, chain 2 of 3, further chain): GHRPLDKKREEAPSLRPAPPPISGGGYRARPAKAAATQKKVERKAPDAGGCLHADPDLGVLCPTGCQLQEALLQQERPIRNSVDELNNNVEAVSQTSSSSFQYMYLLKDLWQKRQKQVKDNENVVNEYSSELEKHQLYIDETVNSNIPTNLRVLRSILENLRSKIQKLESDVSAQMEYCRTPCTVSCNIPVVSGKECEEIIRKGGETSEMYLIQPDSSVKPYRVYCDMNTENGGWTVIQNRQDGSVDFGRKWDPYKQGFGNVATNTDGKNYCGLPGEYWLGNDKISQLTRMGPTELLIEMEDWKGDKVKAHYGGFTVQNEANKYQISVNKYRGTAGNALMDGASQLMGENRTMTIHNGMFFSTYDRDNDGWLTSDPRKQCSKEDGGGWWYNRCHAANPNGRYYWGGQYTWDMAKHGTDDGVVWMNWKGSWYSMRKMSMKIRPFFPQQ
purified human fibrinogen (human), sequence (P02679 27-453, chain 3 of 3, further chain): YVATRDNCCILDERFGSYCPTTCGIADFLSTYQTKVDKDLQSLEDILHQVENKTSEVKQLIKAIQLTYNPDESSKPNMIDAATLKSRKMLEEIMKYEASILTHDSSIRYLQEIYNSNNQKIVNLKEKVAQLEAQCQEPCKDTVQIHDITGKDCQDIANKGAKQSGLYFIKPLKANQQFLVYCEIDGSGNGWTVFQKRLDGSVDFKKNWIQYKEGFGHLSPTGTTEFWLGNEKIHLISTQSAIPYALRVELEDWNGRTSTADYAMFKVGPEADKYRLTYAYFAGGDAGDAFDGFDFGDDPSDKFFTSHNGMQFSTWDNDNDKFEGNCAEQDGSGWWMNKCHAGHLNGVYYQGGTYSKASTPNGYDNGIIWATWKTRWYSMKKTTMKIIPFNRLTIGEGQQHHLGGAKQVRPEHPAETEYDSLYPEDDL
Test [3] has as its target MalE-fibrinogen Aα534-610 (variant 8) (human). Nature of the test: ELISA; fibrinogen Aα variants (0.1 μM in PBS) immobilised in 96-well plates; FLAG-lysin or plasminogen in PBS-T over a range of concentrations, 1 h 37°C; anti-FLAG or anti-plasminogen; non-linear regression, apparent KD.
The target of test [4] is purified human fibrinogen (human) (UniProt P02671). Nature of the test: SPR; Reichert-4 SR7500DC; human fibrinogen (0.1 μM, sodium acetate pH 5.5) covalently immobilised on a PEG gold chip; analytes in PBS, 30 μl/min, 3 min association and dissociation; KD from response at equilibrium against concentration.
In test [5] the target is T1, purified human fibrinogen (human, UniProt P02671 36-866; P02675 45-491; P02679 27-453, plasma fibrinogen hexamer (AαBβγ)2, 29 disulfides, glycosylated; fibrinopeptides A and B present; Aα taken as the circulating 610-residue form, Bβ starts at pyroGlu, γ as the major γA form (411 aa)). Description: SPR; plasminogen (100 nM) over immobilised fibrinogen after PBS, and again after bound lysinSM1 was removed with glycine buffer pH 2.0. As to conditions: both partners purified.
T1 sequence (P02671 36-866, chain 1 of 3): as the sequence (P02671 36-866, chain 1 of 3) above
T1 sequence (P02675 45-491, chain 2 of 3): as the sequence (P02675 45-491, chain 2 of 3, further chain) above
T1 sequence (P02679 27-453, chain 3 of 3): as the sequence (P02679 27-453, chain 3 of 3, further chain) above

In test [6] the target is MalE-fibrinogen Aα248-376 (variant 5) (human). Nature of the test: ELISA; fibrinogen Aα variants (0.1 μM in PBS) immobilised in 96-well plates; FLAG-lysin or plasminogen in PBS-T over a range of concentrations, 1 h 37°C; anti-FLAG or anti-plasminogen; non-linear regression, apparent KD.
The target of test [7] is T1, purified human fibrinogen. Description: SPR; Reichert-4 SR7500DC; human fibrinogen (0.1 μM, sodium acetate pH 5.5) covalently immobilised on a PEG gold chip; analytes in PBS, 30 μl/min, 3 min association and dissociation; KD from response at equilibrium against concentration. As to conditions: both partners purified.

“FLAG-tagged lysin102-198 (domain or fragment)”: the Kd in test [1] stood at 17.3 µM; in test [3], 48 µM; in test [4] it was 23.2 µM. The molecule also gave a percent inhibition of plasminogen binding to immobilised fibrinogen in test [2] of over 75%.
Turning to “recombinant FLAG-tagged lysinSM1 (natural protein)”, the values for the Kd in test [1] and in test [4] were 32.3 µM and 31.5 µM, respectively. In test [2], this molecule yielded a percent inhibition of plasminogen binding to immobilised fibrinogen of over 75%.

B1: human plasminogen (natural protein, UniProt P00747 20-810, looked up)
chain: EPLDDYVNTQGASLFSVTKKQLGAGSIEECAAKCEEDEEFTCRAFQYHSKEQQCVIMAENRKSSIIIRMRDVVLFEKKVYLSECKTGNGKNYRGTMSKTKNGITCQKWSSTSPHRPRFSPATHPSEGLEENYCRNPDNDPQGPWCYTTDPEKRYDYCDILECEEECMHCSGENYDGKISKTMSGLECQAWDSQSPHAHGYIPSKFPNKNLKKNYCRNPDRELRPWCFTTDPNKRWELCDIPRCTTPPPSSGPTYQCLKGTGENYRGNVAVTVSGHTCQHWSAQTPHTHNRTPENFPCKNLDENYCRNPDGKRAPWCHTTNSQVRWEYCKIPSCDSSPVSTEQLAPTAPPELTPVVQDCYHGDGQSYRGTSSTTTTGKKCQSWSSMTPHRHQKTPENYPNAGLTMNYCRNPDADKGPWCFTTDPSVRWEYCNLKKCSGTEASVVAPPPVVLLPDVETPSEEDCMFGNGKGYRGKRATTVTGTPCQDWAAQEPHRHSIFTPETNPRAGLEKNYCRNPDGDVGGPWCYTTNPRKLYDYCDVPQCAAPSFDCGKPQVEPKKCPGRVVGGCVAHPHSWPWQVSLRTRFGMHFCGGTLISPEWVLTAAHCLEKSPRPSSYKVILGAHQEVNLEPHVQEIEVSRLFLEPTRKDIALLKLSSPAVITDKVIPACLPSPNYVVADRTECFITGWGETQGTFGAGLLKEAQLPVIENKVCNRYEFLNGRVQSTELCAGHLAGGTDSCQGDSGGPLVCFEKDKYILQGVTSWGLGCARPNKPGVYVRVSRFVTWIEGVMRNN
notes: plasminogen, human; also called purified plasminogen; recombinant human plasminogen
Regarding B1, the Kd in test [1] worked out at 17.2 µM; in test [5] it was 19.2 µM; in test [6], 85 µM; in test [3], 18 µM; in test [7], 10.4 µM. Moreover, in test [5], the “KD after bound lysinSM1 was removed with glycine buffer pH 2.0” value was 1.68e-05 M.
